Experimental data as given in patent US20040037775A1 (published 2004).
No end group written: not given here. *: point of attachment. MTX = methotrexate, its gamma-carboxylic acid amide-linked to the peptide N-terminus, CN(Cc1cnc2nc(N)nc(N)c2n1)c1ccc(C(=O)N[C@@H](CCC(=O)*)C(=O)O)cc1

Legend:
Assay in all cases: cell-based or functional assay
[1] = biological target: LFA-1 on mouse L1210 T-cells (mouse, UniProt P24063 24-1162; P11835 24-771)
[2] = biological target: LFA-1 receptor on human Molt-3 T-cells (human, UniProt P20701 26-1170; P05107 23-769)
Sequence of LFA-1 receptor on human Molt-3 T-cells (P20701 26-1170, chain 1 of 2): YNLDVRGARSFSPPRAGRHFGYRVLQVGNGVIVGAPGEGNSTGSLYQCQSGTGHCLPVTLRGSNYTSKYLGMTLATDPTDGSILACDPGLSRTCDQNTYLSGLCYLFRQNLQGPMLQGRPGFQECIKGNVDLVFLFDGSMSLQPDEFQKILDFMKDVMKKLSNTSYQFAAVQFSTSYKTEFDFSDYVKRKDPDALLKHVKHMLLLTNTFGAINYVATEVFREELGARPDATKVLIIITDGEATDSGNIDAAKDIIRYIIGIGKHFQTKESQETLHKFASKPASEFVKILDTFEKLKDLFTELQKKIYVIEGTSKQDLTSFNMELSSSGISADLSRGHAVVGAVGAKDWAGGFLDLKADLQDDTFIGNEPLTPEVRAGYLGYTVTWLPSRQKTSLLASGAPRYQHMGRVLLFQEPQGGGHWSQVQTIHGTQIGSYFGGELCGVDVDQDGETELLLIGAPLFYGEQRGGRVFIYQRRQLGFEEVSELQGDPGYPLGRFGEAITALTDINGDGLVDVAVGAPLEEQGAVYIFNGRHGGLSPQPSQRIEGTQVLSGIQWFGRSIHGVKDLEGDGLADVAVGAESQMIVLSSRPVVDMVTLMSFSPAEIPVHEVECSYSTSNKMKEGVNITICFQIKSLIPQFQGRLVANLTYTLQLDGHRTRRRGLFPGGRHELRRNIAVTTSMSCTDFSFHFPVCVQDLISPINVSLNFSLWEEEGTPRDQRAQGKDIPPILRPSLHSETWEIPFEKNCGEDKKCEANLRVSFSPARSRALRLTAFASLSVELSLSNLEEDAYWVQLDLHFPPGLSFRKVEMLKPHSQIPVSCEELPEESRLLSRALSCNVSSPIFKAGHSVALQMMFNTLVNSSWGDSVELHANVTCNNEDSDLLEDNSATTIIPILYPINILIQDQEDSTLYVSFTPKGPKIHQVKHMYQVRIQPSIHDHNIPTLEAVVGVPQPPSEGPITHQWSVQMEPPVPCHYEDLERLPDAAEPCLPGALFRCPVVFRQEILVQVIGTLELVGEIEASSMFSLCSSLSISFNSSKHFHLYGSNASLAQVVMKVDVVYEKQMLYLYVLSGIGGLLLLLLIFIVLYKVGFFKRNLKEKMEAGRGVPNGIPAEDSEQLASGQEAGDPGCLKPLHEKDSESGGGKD
Sequence of LFA-1 receptor on human Molt-3 T-cells (P05107 23-769, chain 2 of 2): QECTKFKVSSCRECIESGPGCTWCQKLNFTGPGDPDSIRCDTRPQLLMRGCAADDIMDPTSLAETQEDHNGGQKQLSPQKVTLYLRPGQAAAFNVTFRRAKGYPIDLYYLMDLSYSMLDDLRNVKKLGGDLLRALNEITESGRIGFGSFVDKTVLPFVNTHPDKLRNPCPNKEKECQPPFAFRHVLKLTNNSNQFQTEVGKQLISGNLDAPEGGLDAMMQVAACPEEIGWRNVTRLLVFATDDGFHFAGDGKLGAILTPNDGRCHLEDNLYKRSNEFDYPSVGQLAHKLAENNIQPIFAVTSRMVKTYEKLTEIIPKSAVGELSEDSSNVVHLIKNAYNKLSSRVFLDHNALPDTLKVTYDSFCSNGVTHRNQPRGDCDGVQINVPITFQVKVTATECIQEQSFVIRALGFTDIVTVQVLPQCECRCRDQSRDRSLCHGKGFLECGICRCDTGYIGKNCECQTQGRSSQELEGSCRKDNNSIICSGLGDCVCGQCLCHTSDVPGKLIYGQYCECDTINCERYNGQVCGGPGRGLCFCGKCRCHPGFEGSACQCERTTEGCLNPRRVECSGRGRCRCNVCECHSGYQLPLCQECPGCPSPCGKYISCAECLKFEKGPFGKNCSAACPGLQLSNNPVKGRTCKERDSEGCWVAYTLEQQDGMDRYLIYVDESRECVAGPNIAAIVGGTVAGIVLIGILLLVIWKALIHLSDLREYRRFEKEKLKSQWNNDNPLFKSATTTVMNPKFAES

[3] = biological target: dihydrofolate reductase enzyme (DHFR)

Sequence of LFA-1 on mouse L1210 T-cells (P24063 24-1162, chain 1 of 2): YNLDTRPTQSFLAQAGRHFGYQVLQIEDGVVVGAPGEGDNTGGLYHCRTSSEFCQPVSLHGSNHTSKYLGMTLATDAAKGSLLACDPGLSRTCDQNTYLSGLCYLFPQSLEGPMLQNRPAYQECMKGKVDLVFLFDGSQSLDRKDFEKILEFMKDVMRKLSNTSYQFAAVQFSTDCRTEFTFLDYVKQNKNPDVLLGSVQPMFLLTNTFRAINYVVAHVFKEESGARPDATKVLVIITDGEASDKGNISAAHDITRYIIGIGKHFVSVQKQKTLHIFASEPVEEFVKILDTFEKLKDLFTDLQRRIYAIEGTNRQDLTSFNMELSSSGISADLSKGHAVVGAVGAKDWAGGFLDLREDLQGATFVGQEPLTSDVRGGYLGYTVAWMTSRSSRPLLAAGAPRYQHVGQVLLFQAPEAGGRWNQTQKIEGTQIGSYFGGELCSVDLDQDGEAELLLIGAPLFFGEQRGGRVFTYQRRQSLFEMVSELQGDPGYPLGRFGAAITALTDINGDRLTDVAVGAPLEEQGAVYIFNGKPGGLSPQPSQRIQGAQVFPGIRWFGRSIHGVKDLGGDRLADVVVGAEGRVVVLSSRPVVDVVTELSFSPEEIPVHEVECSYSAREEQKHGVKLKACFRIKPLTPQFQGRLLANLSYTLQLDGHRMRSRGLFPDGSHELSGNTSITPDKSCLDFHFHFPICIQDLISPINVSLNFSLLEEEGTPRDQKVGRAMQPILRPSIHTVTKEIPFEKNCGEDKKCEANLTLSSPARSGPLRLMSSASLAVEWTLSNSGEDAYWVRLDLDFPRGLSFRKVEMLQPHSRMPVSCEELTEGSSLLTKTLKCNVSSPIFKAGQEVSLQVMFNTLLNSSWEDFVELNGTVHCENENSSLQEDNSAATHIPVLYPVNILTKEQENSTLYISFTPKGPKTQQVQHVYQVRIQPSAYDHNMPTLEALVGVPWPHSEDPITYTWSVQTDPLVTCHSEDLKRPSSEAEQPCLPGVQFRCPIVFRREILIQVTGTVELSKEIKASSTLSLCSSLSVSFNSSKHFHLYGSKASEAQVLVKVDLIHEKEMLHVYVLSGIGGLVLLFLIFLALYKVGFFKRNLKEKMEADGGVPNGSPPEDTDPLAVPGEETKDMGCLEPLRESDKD
Sequence of LFA-1 on mouse L1210 T-cells (P11835 24-771, chain 2 of 2): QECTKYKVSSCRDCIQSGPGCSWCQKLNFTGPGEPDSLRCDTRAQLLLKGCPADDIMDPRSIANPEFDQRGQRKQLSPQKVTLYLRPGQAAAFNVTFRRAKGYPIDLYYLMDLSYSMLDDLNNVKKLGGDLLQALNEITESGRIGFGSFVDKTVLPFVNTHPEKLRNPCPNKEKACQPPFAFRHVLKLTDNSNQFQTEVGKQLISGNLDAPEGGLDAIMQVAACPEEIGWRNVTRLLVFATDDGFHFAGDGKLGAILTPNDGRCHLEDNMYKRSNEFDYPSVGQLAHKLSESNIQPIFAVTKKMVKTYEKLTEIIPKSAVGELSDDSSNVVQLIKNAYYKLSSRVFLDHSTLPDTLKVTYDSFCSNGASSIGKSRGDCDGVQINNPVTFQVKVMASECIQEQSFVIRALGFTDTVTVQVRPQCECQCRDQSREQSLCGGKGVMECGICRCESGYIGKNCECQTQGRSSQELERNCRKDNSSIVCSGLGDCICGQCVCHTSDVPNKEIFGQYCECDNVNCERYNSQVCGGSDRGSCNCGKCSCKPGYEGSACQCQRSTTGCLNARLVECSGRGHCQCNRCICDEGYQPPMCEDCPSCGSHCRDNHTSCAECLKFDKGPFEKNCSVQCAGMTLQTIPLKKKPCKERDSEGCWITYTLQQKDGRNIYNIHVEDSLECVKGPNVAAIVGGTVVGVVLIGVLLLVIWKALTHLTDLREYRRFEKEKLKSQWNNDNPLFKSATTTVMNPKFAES

Binder | IC50 in micromolar, growth inhibition, L1210 mouse leukemia cells [1] [µM] | IC50 in micromolar, cytotoxicity, Molt-3 T-cells [2] [µM] | Km relative to MTX (Dixon plot, DHFR inhibition assay) [3] [fold]
{MTX}-VILPRG-NH2 [MTX-VILPRG] | 0.7 | 9.12 | –
{MTX}-QTSVSPSKVI (also: cyclic peptide, ring not given here) [MTX-cIBL conjugate] | 9.14 | 2.68 | ~4
{MTX}-LPRGGSVLVT (also: cyclic peptide, ring closure not given here) [MTX-cIBR conjugate (methotrexate-cyclo-Leu Pro Arg Gly Gly Ser Val Leu Val Thr)] | 5.5 | 2.75 | ~15
{MTX}-PRGGSV-NH2 [MTX-PRGGSV] | 1.6 | 5.13 | –
